# Measured values as given in the FLAb antibody collection (doi:10.7554/elife.23156).
# B1: scFv; the commonest letter at each place (parent)
# chain 1: EVKLDETGGGLVQPGRPMKLSCVASGFTFSDYWMNWVRQSPEKGLEWVAQIRNKPYNYETYYSDSVKGRFTISRDDSKSSVYLQMNNLRVEDMGIYYCTGSYYGMDYWGQGTSVTVS
# chain 2: DVVMTQTPLSLPVSLGDQASISCRSSQSLVHSNGNTYLRWYLQKPGQSPKVLIYKVSNRFSGVPDRFSGSGSGTDFTLKISRVEAEDLGVYFCSQSTHVPWTFGGGTKLEIK
# Experiments:
# fluorescein = variants of: B1; experiment: Kd (Tite-Seq); conditions: with fluorescein; format: scFv 4-4-20, heavy + light
# [1] = variants of: B1; experiment: yeast surface expression (ratio to wild type); higher = more expressed; conditions: format: scFv 4-4-20, heavy + light
Variant,Kd (fluorescein) [µM],yeast surface expression [1]
chain 1 T28I F29R,≥ 10,0.695
chain 1 S101W Y107K,≥ 10,0.427
chain 1 S101W Y107W,≥ 10,0.386
chain 1 S101C Y107C,≥ 10,0.493
chain 1 S101K Y102I,≥ 10,0.647
chain 1 S30M Y32H,0.0729,0.872
chain 1 M105C G109V,≥ 10,0.171
chain 1 F29I Y32E,≥ 10,0.916
chain 1 F29G N35I,≥ 10,0.645
chain 1 M34N W36Y,≥ 10,0.542
chain 1 M34N W36A,≥ 10,0.608
chain 1 T28F W36H,≥ 10,0.598
chain 1 D106E W108I,0.228,0.866
chain 1 M34N N35H,0.0154,1.84
chain 1 T28E F29Y,0.00468,1.01
chain 1 F29Y S30D,0.0038,0.937
chain 1 G100C D106N,0.00343,0.768
chain 1 F29M V37Y,7.72,1.04
chain 1 D31A W33L,≥ 10,0.534
chain 1 D31H M34Y,0.00279,0.671
chain 1 F29G W33K,≥ 10,0.65
chain 1 G100W S101P D106M,≥ 10,0.186
chain 1 G100W G109S,≥ 10,0.43
chain 1 M105N G109Q,≥ 10,0.235
chain 1 F29D Y32K W33Y,6.61,1.18
chain 1 D31S W36S,≥ 10,2.03

Variant,Kd (fluorescein) [µM],yeast surface expression [1]
chain 1 F29Q M34W,≥ 10,1.56
chain 1 S30M N35V V37A,≥ 10,0.167
chain 1 S30T M34E,0.345,0.314
chain 1 G104L W108C,≥ 10,0.296
chain 1 G100C W108T,0.000846,0.565
chain 1 T28A W33I,≥ 10,1.15
chain 1 D106N W108Q,≥ 10,0.453
chain 1 M105D W108T,≥ 10,0.455
chain 1 F29A V37I,0.0851,0.834
chain 1 G104D M105L,≥ 10,1.07
chain 1 T28E D31K,0.00184,0.969
chain 1 D31V M34E,0.676,2.76
chain 1 G104M Y107H,≥ 10,0.555
chain 1 G100Y G104C,≥ 10,0.183
chain 1 S101Y Y102W M105T,≥ 10,0.507
chain 1 F29N S30E,0.0391,1.07
chain 1 F29N S30H,≥ 10,0.954
chain 1 F29P S30Q,0.0132,1.05
chain 1 M34I W36S,≥ 10,0.556
chain 1 F29I D31K,0.00493,0.958
chain 1 M105Y G109S,0.0507,0.936
chain 1 G100F S101I,≥ 10,0.501
chain 1 F29M W33V,≥ 10,0.982
chain 1 S30R Y32W,≥ 10,0.811
chain 1 D31C W33K,3.74,0.675
chain 1 S101R W108Q,≥ 10,0.346

Variant,Kd (fluorescein) [µM],yeast surface expression [1]
chain 1 S30W Y32G,1.55,0.706
chain 1 M105F W108Y,0.0113,0.656
chain 1 F29L V37P,≥ 10,0.419
chain 1 G100N G104N,≥ 10,0.347
chain 1 G100R Y103I,≥ 10,0.418
chain 1 T28D D31L,0.000804,0.935
chain 1 G100K D106V,≥ 10,0.171
chain 1 F29Q W36H,≥ 10,0.405
chain 1 G100V G104A,≥ 10,0.747
chain 1 D31T M34E,0.0692,0.635
chain 1 D31T M34Y,0.0494,0.706
chain 1 M105T G109V,≥ 10,0.216
chain 1 G109E,≥ 10,0.504
chain 1 S101T Y103Q G109I,≥ 10,0.258
chain 1 S101I,≥ 10,0.521
chain 1 S101T Y103Q,≥ 10,1.11
chain 1 G100Y Y102T,≥ 10,0.662
chain 1 S101I Y102W,≥ 10,0.303
chain 1 D106W,≥ 10,0.339
chain 1 D106H,≥ 10,0.557
chain 1 G100L S101M,≥ 10,0.474
chain 1 S30T N35Q,≥ 10,0.831
chain 1 D31C M34E,0.579,0.778
chain 1 S30N W36D,≥ 10,0.393
chain 1 T28I D31H,0.00128,0.699
chain 1 S30H W36M,2.34,0.564

# Continued, in another order:
Kd (fluorescein) [µM],Variant,yeast surface expression [1]
≥ 10,chain 1 Y32A W33I M34T,0.444
≥ 10,chain 1 Y102I D106Q,0.599
≥ 10,chain 1 T28Y N35Y,0.86
≥ 10,chain 1 Y102M Y107S,0.685
≥ 10,chain 1 Y102F G104Y W108D,0.204
0.143,chain 1 Y32C,1.05
≥ 10,chain 1 Y32C M34P,0.562
≥ 10,chain 1 Y107R G109H,0.277
5.96,chain 1 Y32S W36F,0.853
≥ 10,chain 1 Y32P W36K,0.563
0.195,chain 1 T28K V37R,2.19
3.55,chain 1 T28Q V37L,0.864
≥ 10,chain 1 Y102H G109W,0.254
≥ 10,chain 1 Y107A G109L,0.218
≥ 10,chain 1 Y32W W33Q,0.886
≥ 10,chain 1 W33I V37S,0.617
≥ 10,chain 1 Y103P W108Y,0.364
≥ 10,chain 1 Y107K W108A,0.575
≥ 10,chain 1 Y103I D106W,0.188

Kd (fluorescein) [µM],Variant,yeast surface expression [1]
≥ 10,chain 1 Y32W V37S,0.579
≥ 10,chain 1 Y102D Y107K G109H,0.302
≥ 10,chain 1 Y32E W33K,0.742
≥ 10,chain 1 W33N N35M,0.792
≥ 10,chain 1 Y103L M105C,1
≥ 10,chain 1 W36M V37W,0.496
≥ 10,chain 1 Y102A Y107P,0.707
0.205,chain 1 W33P N35Y,0.393
≥ 10,chain 1 Y103S G104N,1.04
≥ 10,chain 1 W33E N35R,0.588
≥ 10,chain 1 Y32P N35Y,0.488
0.0353,chain 1 T28V M34S,0.593
2.47,chain 1 Y32P W33C,0.832
≥ 10,chain 1 Y32K V37T,0.623
0.75,chain 1 Y102Q M105Y,0.947
8.13,chain 1 Y102Q Y103A,0.994
0.0318,chain 1 Y103S,1.05
≥ 10,chain 1 Y103T D106S,0.883
≥ 10,chain 1 Y32R W33M,0.809
